Measurements: the supplement of paper PMC11246515
± gives the standard deviation of the averaged measurements.

Assay: total protein half-life in vivo (active degradation + dilution); higher = more stable protein
[1] = E. coli NCM3722 delta-clpP delta-lon delta-hslV, growth: N-lim chemostat, doubling time 6 h
[2] = E. coli NCM3722 delta-clpP, growth: N-lim chemostat, doubling time 6 h
[3] = E. coli NCM3722 delta-hslV, growth: N-lim chemostat, doubling time 6 h
[4] = E. coli NCM3722 delta-lon, growth: N-lim chemostat, doubling time 6 h
[5] = E. coli NCM3722 delta-smpB, growth: N-lim chemostat, doubling time 6 h
[6] = wild type E. coli NCM3722, growth: C-lim chemostat, doubling time 3 h
[7] = wild type E. coli NCM3722, growth: C-lim chemostat, doubling time 6 h
[8] = wild type E. coli NCM3722, growth: C-lim chemostat, doubling time 12 h
[9] = wild type E. coli NCM3722, growth: N-lim chemostat, doubling time 6 h
[10] = wild type E. coli NCM3722, growth: N-lim chemostat, doubling time 12 h
[11] = wild type E. coli NCM3722, growth: P-lim chemostat, doubling time 6 h
[12] = wild type E. coli NCM3722, growth: P-lim chemostat, doubling time 12 h

Sequence	total protein half-life in vivo [1] [h]	total protein half-life in vivo [2] [h]	total protein half-life in vivo [3] [h]	total protein half-life in vivo [4] [h]	total protein half-life in vivo [5] [h]	total protein half-life in vivo [6] [h]	total protein half-life in vivo [7] [h]	total protein half-life in vivo [8] [h]	total protein half-life in vivo [9] [h]	total protein half-life in vivo [10] [h]	total protein half-life in vivo [11] [h]	total protein half-life in vivo [12] [h]
MSKSTAEIRQAFLDFFHSKGHQVVASSSLVPHNDPTLLFTNAGMNQFKDVFLGLDKRNYSRATTSQRCVRAGGKHNDLENVGYTARHHTFFEMLGNFSFGDYFKHDAIQFAWELLTSEKWFALPKERLWVTVYESDDEAYEIWEKEVGIPRERIIRIGDNKGAPYASDNFWQMGDTGPCGPCTEIFYDHGDHIWGGPPGSPEEDGDRYIEIWNIVFMQFNRQADGTMEPLPKPSVDTGMGLERIAAVLQHVNSNYDIDLFRTLIQAVAKVTGATDLSNKSLRVIADHIRSCAFLIADGVMPSNENRGYVLRRIIRRAVRHGNMLGAKETFFYKLVGPLIDVMGSAGEDLKRQQAQVEQVLKTEEEQFARTLERGLALLDEELAKLSGDTLDGETAFRLYDTYGFPVDLTADVCRERNIKVDEAGFEAAMEEQRRRAREASGFGADYNAMIRVDSASEFKGYDHLELNGKVTALFVDGKAVDAINAGQEAVVVLDQTPFYAESGGQVGDKGELKGANFSFAVEDTQKYGQAIGHIGKLAAGSLKVGDAVQADVDEARRARIRLNHSATHLMHAALRQVLGTHVSQKGSLVNDKVLRFDFSHNEAMKPEEIRAVEDLVNTQIRRNLPIETNIMDLEAAKAKGAMALFGEKYDERVRVLSMGDFSTELCGGTHASRTGDIGLFRIISESGTAAGVRRIEAVTGEGAIATVHADSDRLSEVAHLLKGDSNNLADKVRSVLERTRQLEKELQQLKEQAAAQESANLSSKAIDVNGVKLLVSELSGVEPKMLRTMVDDLKNQLGSTIIVLATVVEGKVSLIAGVSKDVTDRVKAGELIGMVAQQVGGKGGGRPDMAQAGGTDAAALPAALASVKGWVSAKLQ	5.338 ± 0.0061	5.33 ± 0.19	5.65 ± 0.48	5.67 ± 0.09	5.06 ± 0.068	3.04 ± 0.14	6.01 ± 0.44	11 ± 0.2	5.11 ± 0.11	9.15 ± 0.27	6.2 ± 0.075	11.9 ± 0.62
MSIRFARKADCAAIAEIYNHAVLYTAAIWNDQTVDADNRIAWFEARTLAGYPVLVSEENGVVTGYASFGDWRSFDGFRHTVEHSVYVHPDHQGKGLGRKLLSRLIDEARDCGKHVMVAGIESQNQASLHLHQSLGFVVTAQMPQVGTKFGRWLDLTFMQLQLDERTEPDAIG	5.23 ± 0.39	4.6 ± 0.25	4.9 ± 0.08	5.17 ± 0.18	4.66 ± 0.33	2.77 ± 0.072	5.77 ± 0.34	10.14 ± 0.042	4.93 ± 0.44	9.49	5.912 ± 0.025	12 ± 0.29
MRLDKFIAQQLGVSRAIAGREIRGNRVTVDGEIVRNAAFKLLPEHDVAYDGNPLAQQHGPRYFMLNKPQGYVCSTDDPDHPTVLYFLDEPVAWKLHAAGRLDIDTTGLVLMTDDGQWSHRITSPRHHCEKTYLVTLESPVADDTAEQFAKGVQLHNEKDLTKPAVLEVITPTQVRLTISEGRYHQVKRMFAAVGNHVVELHRERIGGITLDADLAPGEYRPLTEEEIASVV [P0AA43]	5.25 ± 0.067	4.76 ± 0.54	3.68 ± 0.064	4.65 ± 0.39	3.78 ± 0.066	3 ± 0.1	4.74 ± 0.18	8.66 ± 0.55	3.57 ± 0.14	6.08 ± 0.51	4 ± 0.33	7.21 ± 0.22
MKALTYHGPHHVQVENVPDPGVEQADDIILRITATAICGSDLHLYRGKIPQVKHGDIFGHEFMGEVVETGKDVKNLQKGDRVVIPFVIACGDCFFCRLQQYAACENTNAGKGAALNKKQIPAPAALFGYSHLYGGVPGGQAEYVRVPKGNVGPFKVPPLLSDDKALFLSDILPTAWQAAKNAQIQQGSSVAVYGAGPVGLLTIACARLLGAEQIFVVDHHPYRLHFAADRYGAIPINFDEDSDPAQSIIEQTAGHRGVDAVIDAVGFEAKGSTTETVLTNLKLEGSSGKALRQCIAAVRRGGIVSVPGVYAGFIHGFLFGDAFDKGLSFKMGQTHVHAWLGELLPLIEKGLLKPEEIVTHYMPFEEAARGYEIFEKREEECRKVILVPGAQSAEAAQKAVSGLVNAMPGGTI	5.38 ± 0.18	–	4.446 ± 0.011	4.83 ± 0.24	3.69 ± 2.5	–	0.447	10.2	4.75 ± 0.35	7.88 ± 0.2	4.4 ± 0.32	13.1 ± 3.3
MTQPLFLIGPRGCGKTTVGMALADSLNRRFVDTDQWLQSQLNMTVAEIVEREEWAGFRARETAALEAVTAPSTVIATGGGIILTEFNRHFMQNNGIVVYLCAPVSVLVNRLQAAPEEDLRPTLTGKPLSEEVQEVLEERDALYREVAHIIIDATNEPSQVISEIRSALAQTINC [P0A6E1]	4.64 ± 0.55	5.49 ± 2.4	2.62 ± 0.031	2.9 ± 0.18	2.42 ± 0.11	2.43 ± 0.067	5.25 ± 0.8	7.3 ± 0.53	2.59 ± 0.29	3.99 ± 0.094	3.9 ± 0.047	8.17 ± 0.78
MSEMIYGIHAVQALLERAPERFQEVFILKGREDKRLLPLIHALESQGVVIQLANRQYLDEKSDGAVHQGIIARVKPGRQYQENDLPDLIASLDQPFLLILDGVTDPHNLGACLRSADAAGVHAVIVPKDRSAQLNATAKKVACGAAESVPLIRVTNLARTMRMLQEENIWIVGTAGEADHTLYQSKMTGRLALVMGAEGEGMRRLTREHCDELISIPMAGSVSSLNVSVATGICLFEAVRQRS	5.18 ± 0.29	4.81 ± 0.49	5.39 ± 0.28	5.55 ± 0.52	4.69 ± 0.23	2.73 ± 0.46	5.83 ± 0.66	10.3 ± 0.25	5.17 ± 0.15	9.48 ± 0.31	5.37 ± 0.4	11.5 ± 0.28
MDQTYSLESFLNHVQKRDPNQTEFAQAVREVMTTLWPFLEQNPKYRQMSLLERLVEPERVIQFRVVWVDDRNQIQVNRAWRVQFSSAIGPYKGGMRFHPSVNLSILKFLGFEQTFKNALTTLPMGGGKGGSDFDPKGKSEGEVMRFCQALMTELYRHLGADTDVPAGDIGVGGREVGFMAGMMKKLSNNTACVFTGKGLSFGGSLIRPEATGYGLVYFTEAMLKRHGMGFEGMRVSVSGSGNVAQYAIEKAMEFGARVITASDSSGTVVDESGFTKEKLARLIEIKASRDGRVADYAKEFGLVYLEGQQPWSLPVDIALPCATQNELDVDAAHQLIANGVKAVAEGANMPTTIEATELFQQAGVLFAPGKAANAGGVATSGLEMAQNAARLGWKAEKVDARLHHIMLDIHHACVEHGGEGEQTNYVQGANIAGFVKVADAMLAQGVI	3.53 ± 0.36	1.97 ± 0.1	1.8 ± 0.11	2.13 ± 0.14	2.14 ± 0.08	2.94 ± 0.19	4.66 ± 0.28	7.29 ± 0.52	1.88 ± 0.073	2.61 ± 0.4	5.35 ± 0.14	9.48 ± 0.6
